Test results reported in patent US20200199241A1 (Chugai, published 2020).

B1: IgG1-F255 (antibody)
heavy: QVQLQESGPGLVKPSETLSLTCAVSGHSISHDHAWSWVRQPPGEGLEWIGFISYSGITNYNPSLQGRVTISRDNSKNTLYLQMNSLRAEDTAVYYCARSLARTTAMDYWGEGTLVTVSSASTKGPSVFPLAPSSKSTSGGTAALGCLVKDYFPEPVTVSWNSGALTSGVHTFPAVLQSSGLYSLSSVVTVPSSSLGTQTYICNVNHKPSNTKVDKKVEPKSCDKTHTCPPCPAPELLGGPSVFLFPPKPKDTLWISRTPEVTCVVVDVSHEDPEVKFNWYVDGVEVHNAKTKPREEQYNSTYRVVSVLTVLHADWLNGKEYKCKVSNKALPAPIEKTISKAKGQPREPQVYTLPPSRDELTKNQVSLTCLVKGFYPSDIAVEWESNGQPENNYKTTPPVLDSDGSFFLYSKLTVDKSRWQQGNVFSCSVYHEALHYHYTQKSLSLSP
light: not shown
notes: EU numbering; copies: 2 + 2
B2: IgG1-F256 (antibody)
heavy: QVQLQESGPGLVKPSETLSLTCAVSGHSISHDHAWSWVRQPPGEGLEWIGFISYSGITNYNPSLQGRVTISRDNSKNTLYLQMNSLRAEDTAVYYCARSLARTTAMDYWGEGTLVTVSSASTKGPSVFPLAPSSKSTSGGTAALGCLVKDYFPEPVTVSWNSGALTSGVHTFPAVLQSSGLYSLSSVVTVPSSSLGTQTYICNVNHKPSNTKVDKKVEPKSCDKTHTCPPCPAPELLGGPSVFLFPPKPKDTLWISRTPEVTCVVVDVSHEDPEVKFNWYVDGVEVHNAKTKPREEQYNSTYRVVSVLQVLHADWLNGKEYKCKVSNKALPAPIEKTISKAKGQPREPQVYTLPPSRDELTKNQVSLTCLVKGFYPSDIAVEWESNGQPENNYKTTPPVLDSDGSFFLYSKLTVDKSRWQQGNVFSCSVYHEALHYHYTQKSLSLSP
light: not shown
notes: EU numbering; copies: 2 + 2
B3: IgG1-F261 (antibody)
heavy: QVQLQESGPGLVKPSETLSLTCAVSGHSISHDHAWSWVRQPPGEGLEWIGFISYSGITNYNPSLQGRVTISRDNSKNTLYLQMNSLRAEDTAVYYCARSLARTTAMDYWGEGTLVTVSSASTKGPSVFPLAPSSKSTSGGTAALGCLVKDYFPEPVTVSWNSGALTSGVHTFPAVLQSSGLYSLSSVVTVPSSSLGTQTYICNVNHKPSNTKVDKKVEPKSCDKTHTCPPCPAPELLGGPSVFLFPPKPKDTLYISRTPEVTCVVVDVSHEDPEVKFNWYVDGVEVHNAKTKPREEQYNSTYRVVSVLQVLHADWLNGKEYKCKVSNKALPAPIEKTISKAKGQPREPQVYTLPPSRDELTKNQVSLTCLVKGFYPSDIAVEWESNGQPENNYKTTPPVLDSDGSFFLYSKLTVDKSRWQQGNVFSCSVMHEALHYHYTQKSLSLSP
light: not shown
notes: EU numbering; copies: 2 + 2
B4: IgG1-F259 (antibody)
heavy: QVQLQESGPGLVKPSETLSLTCAVSGHSISHDHAWSWVRQPPGEGLEWIGFISYSGITNYNPSLQGRVTISRDNSKNTLYLQMNSLRAEDTAVYYCARSLARTTAMDYWGEGTLVTVSSASTKGPSVFPLAPSSKSTSGGTAALGCLVKDYFPEPVTVSWNSGALTSGVHTFPAVLQSSGLYSLSSVVTVPSSSLGTQTYICNVNHKPSNTKVDKKVEPKSCDKTHTCPPCPAPELLGGPSVFLFPPKPKDTLYISRTPEVTCVVVDVSHEFPEVKFNWYVDGVEVHNAKTKPREEQYNSTYRVVSVLTVLHQDWLNGKEYKCKVSNKALPAPIEKTISKAKGQPREPQVYTLPPSRDELTKNQVSLTCLVKGFYPSDIAVEWESNGQPENNYKTTPPVLDSDGSFFLYSKLTVDKSRWQQGNVFSCSVMHEALHYHYTQKSLSLSP
light: not shown
notes: EU numbering; copies: 2 + 2
B5: IgG1-F257 (antibody)
heavy: QVQLQESGPGLVKPSETLSLTCAVSGHSISHDHAWSWVRQPPGEGLEWIGFISYSGITNYNPSLQGRVTISRDNSKNTLYLQMNSLRAEDTAVYYCARSLARTTAMDYWGEGTLVTVSSASTKGPSVFPLAPSSKSTSGGTAALGCLVKDYFPEPVTVSWNSGALTSGVHTFPAVLQSSGLYSLSSVVTVPSSSLGTQTYICNVNHKPSNTKVDKKVEPKSCDKTHTCPPCPAPELLGGPSVFLFPPKPKDTLYISRTPEVTCVVVDVSHEDPEVKFNWYVDGVEVHNAKTKPREEQYNSTYRVVSVLAVLHQDWLNGKEYKCKVSNKALPAPIEKTISKAKGQPREPQVYTLPPSRDELTKNQVSLTCLVKGFYPSDIAVEWESNGQPENNYKTTPPVLDSDGSFFLYSKLTVDKSRWQQGNVFSCSVYHEALHYHYTQKSLSLSP
light: not shown
notes: EU numbering; copies: 2 + 2
B6: IgG1-F258 (antibody)
heavy: QVQLQESGPGLVKPSETLSLTCAVSGHSISHDHAWSWVRQPPGEGLEWIGFISYSGITNYNPSLQGRVTISRDNSKNTLYLQMNSLRAEDTAVYYCARSLARTTAMDYWGEGTLVTVSSASTKGPSVFPLAPSSKSTSGGTAALGCLVKDYFPEPVTVSWNSGALTSGVHTFPAVLQSSGLYSLSSVVTVPSSSLGTQTYICNVNHKPSNTKVDKKVEPKSCDKTHTCPPCPAPELLGGPSVFLFPPKPKDTLYISRTPEVTCVVVDVSHEDPEVKFNWYVDGVEVHNAKTKPREEQYNSTYRVVSVLQVLHQDWLNGKEYKCKVSNKALPAPIEKTISKAKGQPREPQVYTLPPSRDELTKNQVSLTCLVKGFYPSDIAVEWESNGQPENNYKTTPPVLDSDGSFFLYSKLTVDKSRWQQGNVFSCSVYHEALHYHYTQKSLSLSP
light: not shown
notes: EU numbering; copies: 2 + 2
B7: IgG1-F262 (antibody)
heavy: QVQLQESGPGLVKPSETLSLTCAVSGHSISHDHAWSWVRQPPGEGLEWIGFISYSGITNYNPSLQGRVTISRDNSKNTLYLQMNSLRAEDTAVYYCARSLARTTAMDYWGEGTLVTVSSASTKGPSVFPLAPSSKSTSGGTAALGCLVKDYFPEPVTVSWNSGALTSGVHTFPAVLQSSGLYSLSSVVTVPSSSLGTQTYICNVNHKPSNTKVDKKVEPKSCDKTHTCPPCPAPELLGGPSVFLFPPKPKDTLYISRTPEVTCVVVDVSHEDPEVKFNWYVDGVEVHNAKTKPREEQYNSTYRVVSVLAVLHHDWLNGKEYKCKVSNKALPAPIEKTISKAKGQPREPQVYTLPPSRDELTKNQVSLTCLVKGFYPSDIAVEWESNGQPENNYKTTPPVLDSDGSFFLYSKLTVDKSRWQQGNVFSCSVMHEALHYHYTQKSLSLSP
light: not shown
notes: EU numbering; copies: 2 + 2
B8: IgG1-F263 (antibody)
heavy: QVQLQESGPGLVKPSETLSLTCAVSGHSISHDHAWSWVRQPPGEGLEWIGFISYSGITNYNPSLQGRVTISRDNSKNTLYLQMNSLRAEDTAVYYCARSLARTTAMDYWGEGTLVTVSSASTKGPSVFPLAPSSKSTSGGTAALGCLVKDYFPEPVTVSWNSGALTSGVHTFPAVLQSSGLYSLSSVVTVPSSSLGTQTYICNVNHKPSNTKVDKKVEPKSCDKTHTCPPCPAPELLGGPSVFLFPPKPKDTLYISRTPEVTCVVVDVSHEDPEVKFNWYVDGVEVHNAKTKPREEQYNSTYRVVSVLQVLHHDWLNGKEYKCKVSNKALPAPIEKTISKAKGQPREPQVYTLPPSRDELTKNQVSLTCLVKGFYPSDIAVEWESNGQPENNYKTTPPVLDSDGSFFLYSKLTVDKSRWQQGNVFSCSVMHEALHYHYTQKSLSLSP
light: not shown
notes: EU numbering; copies: 2 + 2
B9: IgG1-F260 (antibody)
heavy: QVQLQESGPGLVKPSETLSLTCAVSGHSISHDHAWSWVRQPPGEGLEWIGFISYSGITNYNPSLQGRVTISRDNSKNTLYLQMNSLRAEDTAVYYCARSLARTTAMDYWGEGTLVTVSSASTKGPSVFPLAPSSKSTSGGTAALGCLVKDYFPEPVTVSWNSGALTSGVHTFPAVLQSSGLYSLSSVVTVPSSSLGTQTYICNVNHKPSNTKVDKKVEPKSCDKTHTCPPCPAPELLGGPSVFLFPPKPKDTLYISRTPEVTCVVVDVSHEDPEVKFNWYVDGVEVHNAKTKPREEQYNSTYRVVSVLAVLHADWLNGKEYKCKVSNKALPAPIEKTISKAKGQPREPQVYTLPPSRDELTKNQVSLTCLVKGFYPSDIAVEWESNGQPENNYKTTPPVLDSDGSFFLYSKLTVDKSRWQQGNVFSCSVMHEALHYHYTQKSLSLSP
light: not shown
notes: EU numbering; copies: 2 + 2

Each binder was assayed against T1, human FcRn (soluble human FcRn complexed with β2-microglobulin) (human, UniProt P61769 21-119, limits assumed) (assay: SPR, pH 7.0;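 further: antibodies captured on a Protein L sensor chip with human FcRn injected as analyte, KD calculated from fitted association and dissociation rate constants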).
T1 construct: also called hFcRn
T1 sequence (chain, as listed by the source limits assumed, chain 1 of 2): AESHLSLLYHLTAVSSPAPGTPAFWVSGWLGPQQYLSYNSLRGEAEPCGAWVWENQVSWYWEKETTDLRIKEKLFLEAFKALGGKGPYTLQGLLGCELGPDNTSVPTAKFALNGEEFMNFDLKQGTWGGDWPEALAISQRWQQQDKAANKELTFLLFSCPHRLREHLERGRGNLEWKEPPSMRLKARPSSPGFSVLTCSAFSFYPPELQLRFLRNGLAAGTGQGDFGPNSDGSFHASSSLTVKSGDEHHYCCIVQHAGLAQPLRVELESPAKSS
T1 sequence (P61769 21-119 limits assumed, chain 2 of 2): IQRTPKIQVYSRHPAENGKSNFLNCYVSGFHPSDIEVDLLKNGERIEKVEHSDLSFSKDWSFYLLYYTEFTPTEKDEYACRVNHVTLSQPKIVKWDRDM
Work on B1 yielded a Kd of 110 nM. Binder B2 has a Kd of 54 nM. B3 was tested, and the Kd was 84 nM. B4 gave a Kd of 280 nM. Binder B5 has a Kd of 500 nM. B6 gave a Kd of 320 nM. Work on B7 yielded a Kd of 190 nM. For B8, the Kd was 110 nM. Work on B9 yielded a Kd of 130 nM.
